According to patent publication US20110262479A1:
Values belong to the binder of their own block, whether it stands above or below them.

Legend:
[1] = target: TCR of the rat Vβ8.2+ T cell hybridoma C14/BW12-12A1 (A1), specific for Gp-BP-72-89 (rat); assay: flow cytometry, A1 hybridoma with 10 µM complex 17 h at 4 C, detected with OX6-PE
[2] = target: TCRs of the MBP-69-89 specific short-term T cell line (Lewis rat) (rat); assay: cell-based or functional assay
[3] = target: TCR of the rat Vβ8.2+ T cell hybridoma C14/BW12-12A1 (A1), specific for Gp-BP-72-89 (rat); assay: flow cytometry, direct binding study on A1 hybridoma
[4] = target: TCR of the rat Vβ8.2+ T cell hybridoma C14/BW12-12A1 (A1), specific for Gp-BP-72-89 (rat); assay: flow cytometry, directly labelled complex on A1 hybridomas, 3 h at 4 C
[5] = target: TCR of the cardiac myosin CM-2-specific cell line (rat); assay: flow cytometry, CM-2 line (blocked with unconjugated OX6) with 10 µM complex 17 h at 4 C, detected with OX6-PE

B1: β1α1/MBP-69-89 complex (rat RT1.B β1α1 construct loaded with MBP-69-89 peptide) (peptide-MHC)
chain: MGRDSPRDFVYQFKGLCYYTNGTQRIRDVIRYIYNQEEYLRYDSDVGEYRALTELGRPSAEYFNKQYLEQTRAELDTVCRHNYEGSEVRTSLRRLGGQDDIEADHVAAYGINMYQYYESRGQFTHEFDGDEEFYVDLDKKETIWRIPEFGQLTSFDPQGGLQNIAIIKHNLEILMKRSNSTQAVN
peptide: GSLPQKSQRSQDENPVVHF
- mean fluorescence intensity (MFI) [1]: 800 Units
- inhibition of proliferation of the T cell line to MBP-69-89 + APC after pre-treatment with 10 nM complex [2]: > 90%
- fold increase in MFI over background [3]: 10 fold

B4: β1α1/CM-2 complex (rat RT1.B β1α1 construct loaded with cardiac myosin peptide CM-2) (peptide-MHC)
chain: MGRDSPRDFVYQFKGLCYYTNGTQRIRDVIRYIYNQEEYLRYDSDVGEYRALTELGRPSAEYFNKQYLEQTRAELDTVCRHNYEGSEVRTSLRRLGGQDDIEADHVAAYGINMYQYYESRGQFTHEFDGDEEFYVDLDKKETIWRIPEFGQLTSFDPQGGLQNIAIIKHNLEILMKRSNSTQAVN
peptide: KLELQSALEEAEASLEH
- mean fluorescence intensity (MFI) [5]: 1800 Units

The next lines start with the values.

- MCI [4]: 300 Units
B2: A488-β1α1/MBP-69-89 (Alexa-488 conjugated rat β1α1 loaded with MBP-69-89) (peptide-MHC)
chain: MGRDSPRDFVYQFKGLCYYTNGTQRIRDVIRYIYNQEEYLRYDSDVGEYRALTELGRPSAEYFNKQYLEQTRAELDTVCRHNYEGSEVRTSLRRLGGQDDIEADHVAAYGINMYQYYESRGQFTHEFDGDEEFYVDLDKKETIWRIPEFGQLTSFDPQGGLQNIAIIKHNLEILMKRSNSTQAVN
peptide: GSLPQKSQRSQDENPVVHF
modifications: Alexa-488 dye conjugated, molar ratio dye/protein=1; site not stated

- inhibition of proliferation of the T cell line to MBP-69-89 + APC after pre-incubation with 20 µM complex [2]: 27%
B3: β1α1/MBP-55-69 complex (rat RT1.B β1α1 with Gp-MBP-55-69 peptide) (peptide-MHC)
chain: MGRDSPRDFVYQFKGLCYYTNGTQRIRDVIRYIYNQEEYLRYDSDVGEYRALTELGRPSAEYFNKQYLEQTRAELDTVCRHNYEGSEVRTSLRRLGGQDDIEADHVAAYGINMYQYYESRGQFTHEFDGDEEFYVDLDKKETIWRIPEFGQLTSFDPQGGLQNIAIIKHNLEILMKRSNSTQAVN
peptide: SGKDSHHAARTTHYG
